Patent US20140178561

What was measured:
Assay in all cases: cell_activity
Details in all cases: pair value
[1] = test system: VInv_T01 TALE-nuclease right monomer (synthetic construct)
[2] = test system: VInv_T01 TALE-nuclease left monomer (synthetic construct)
[3] = test system: VInv_T02 TALE-nuclease left monomer (synthetic construct)
[4] = test system: VInv_T02 TALE-nuclease right monomer (synthetic construct)
[5] = test system: VInv_T03 TALE-nuclease left monomer (synthetic construct)
[6] = test system: VInv_T03 TALE-nuclease right monomer (synthetic construct)
[7] = S. tuberosum protoplasts, endogenous locus
[8] = yeast beta-galactosidase assay 37 C, 0.95 at 30 C
[9] = yeast beta-galactosidase assay 37 C, 0.89 at 30 C
[10] = S. tuberosum protoplasts, text p49 gives range up to 9.5%
[11] = yeast beta-galactosidase assay 37 C, 0.82 at 30 C

GAAGTCCCTTAAAATCA (double strand) [VInv_T1 right half-site]
activity [1, 7]: 3.6 % NHEJ
activity (relative to I-SceI) [1, 8]: 0.94

TTCCTCCCGGATCAACC (double strand) [VInv_T1 left half-site]
activity [2, 7]: 3.6 % NHEJ
activity (relative to I-SceI) [2, 8]: 0.94

TTCCTCTCCTCTTTCCT (double strand) [VInv_T2 left half-site]
activity [3, 7]: 9.5 % NHEJ
activity (relative to I-SceI) [3, 9]: 0.92

CTTCTTTCCGATCCTCA (double strand) [VInv_T2 right half-site]
activity [4, 7]: 9.5 % NHEJ
activity (relative to I-SceI) [4, 9]: 0.92

TAGCCTTCTTTCCGATC (double strand) [VInv_T3 left half-site]
activity [5, 10]: 9.9 % NHEJ
activity (relative to I-SceI) [5, 11]: 0.96

CCGGACTTGCAGAGTAA (double strand) [VInv_T3 right half-site]
activity [6, 10]: 9.9 % NHEJ
activity (relative to I-SceI) [6, 11]: 0.96
